From PMC3393791

Target: T1, Full-length human TIP47/perilipin-3 (human), O60664
T1 chain: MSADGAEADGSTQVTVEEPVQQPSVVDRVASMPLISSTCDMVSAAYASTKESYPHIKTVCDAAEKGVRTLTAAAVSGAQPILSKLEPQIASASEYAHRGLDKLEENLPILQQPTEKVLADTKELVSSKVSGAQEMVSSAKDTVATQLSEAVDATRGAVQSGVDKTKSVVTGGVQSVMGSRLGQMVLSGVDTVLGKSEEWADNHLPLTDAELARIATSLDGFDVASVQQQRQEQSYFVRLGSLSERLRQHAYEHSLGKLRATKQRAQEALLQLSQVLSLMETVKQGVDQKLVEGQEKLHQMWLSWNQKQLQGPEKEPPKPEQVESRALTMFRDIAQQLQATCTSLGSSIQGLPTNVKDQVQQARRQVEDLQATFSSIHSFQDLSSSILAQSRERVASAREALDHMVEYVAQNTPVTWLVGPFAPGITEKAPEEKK
Assay: SEC-MALS
Settings: remark: other sources report otherwise

stoichiometry N: 2
B1: Full-length human TIP47/perilipin-3, O60664 1-434 (natural protein)
chain: T1 chain
